test system: MS2 coat protein; assay: apparent KD of MS2 coat protein, switch ON state; designed switch direction (-1 OFF switch, 1 ON switch): -1; higher = weaker reporter binding; details: FMN input: 0 or 200 uM; Eterna round: R93 (includes R88 designs)
Procedure, shortened: (§1)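 Titrations with SNAP-549-labelled MS2 coat protein ran in twofold steps from 0.7 or 1.5 nM to 3 µM, each step taking 0.8–1.5 h at the start and 10–20 min toward the end. The targets were designed RNA switches transcribed on-chip from Illumina sequencing clusters, held in 100 mM Tris-HCl pH 7.5, 80 mM KCl, 4 mM MgCl2, without or with constant ligand. Apparent KD was taken per design as the median of normalised cluster binding-curve fits.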

Sequence	apparent KD of MS2 coat protein [nM]
AAAAGACAUGAGGAUCACCCAUGUUAGGAUAUCGUGCAGAAAAAAAAAAAAAACUGCACGAGAAGGAACAAGGA [Seclusion]	30.5
CUCAAGUCAGGAUAUAAAAGAAAAGAAGAGAAAGAAAAGAAUUAGAAGGGACAUGAGGAUCACCCAUGUAAGAA [EteRNA is fun!]	66.9
AAAAAGUGAGGAUAUACGAGGAGAAACAACAAACAAACAAAACAUGAGGAUCACCCAUGUAGAAGGCACAAAAA [Ex 2 sub 3]	22.4
AAGGGACAUGAGGAUCACCCAUGUUAGGAUAUGCAAACAACAAACAACAAACAACAAAGCAGAAGGGACAAAAA [63%, Olong, 6]	30.5
AAAAAAAGAGGAUAUACGAACAUGUCAAAAGACGUGAAGGGACAUGAGGAUCACCCAUGUAGAAGGUUUAAAAA [JL Wide Open 29]	32.9
AACAUGUCAGGAUAUGUAAAAAAAAAAAAAAAAAAAAAAAUACAGAAGGGACAUGAGGAUCACCCAUGUCAGGG [EX4 391: Minimal 3]	69.8
AGCUAGUCAGGAUAUACGAACAUGUCAAAAGACGUGAAGGGACAUGAGGAUCACCCAUGUAGAAGGGACUAGCG [salish99-ex2-14]	36
ACAUGACAUGAGGAUCACCCAUGUGAGGAUAUGCGAAAAAAAAAAAAAAAAAAAAUUGGCAGAAGGCACAAAAU [Jean Baudrillard]	202
AAGAUGUCAGGAUAUGUGUAAAGAAUAAAAGAAAUAACAACACAGAAGGGACAUGAGGAUCACCCAUGUCAACA [May 34]	26.9
AAAAAGUCAGGAUAUCGGAAAAAAAAAAUAAAAAAAAAAAACGAGAAGGGACAUGAGGAUCACCCAUGUAUGAC [Mat - Exclusion 4 - Mayanna - D112]	37.4
AAGAAUGGAGGAUAUACAAAAUAAAAGAAAAGAAAGAAAGAACAUGAGGAUCACCCAUGUAGAAGGCCGAAGAA [Mersekhemre Ined]	14.6
AAAAAACAUGAGGAUCACCCAUGUAAGGAUAUGCAAAAUAAAAGAAAUAAAAAGAAAAGCAGAAGGUAUAUGAA [JL wbt mod 7]	32.6
AGUCAUACAGGAUAUACAUGAGGAUCACCCAUGUAUAUCCAAAAAAAGUGAUCCUCAUGUAGAAGGGUAUGACA [EX3 203: Super Stable 3]	12
AAAUUGUCAGGAUAUCUGGAUAGGAAAAAGAAAACCUAUCCAGAGAAGGGACAUGAGGAUCACCCAUGUAAAAA [JL cataway mod 1]	81.1
GGAAAACAUGAGGAUCACCCAUGUAAGGAUAUGCAAAAAAAGGAUAUAGAAGGAAAAAGCAGAAGGUACAAAGG [salish99-ex1-24]	30.6
CUCUUGUCAGGAUAUCGAAGAAAAGAAAAGAAAGAAAAGAACGAGAAGGGACAUGAGGAUCACCCAUGUAAGAA [EteRNA is fun!]	61.5
AAAAAACAUGAGGAUCACCCAUGUGAGGAUAUGACGUAAAUAAAGAAAGAAUAAAUCGUCAGAAGGCACAAAAA [Mat - Exclusion 1 - Eli mod - D72]	31.4

Sequence	apparent KD of MS2 coat protein [nM]
AAGAAGAGAGGAUAUACAUGAAAGAAAGAAAAGAAAAGAAAACAUGAGGAUCACCCAUGUAGAAGGCUCAAGAA [EteRNA is fun!]	39.4
AACUGACAUGAGGAUCACCCAUGUCAGGAUAUGCUUCAUAAAAACAAACAAAAAUGAUGCAGAAGGGACAUGGG [Design 31 :P Sub-opt 7]	17.1
AGUCUGAGAGGAUAUACAUGGAAAAAAAAAGUAAGAUCCCUACAUGAGGAUCACCCAUGUAGAAGGCUCUGACA [Ex2 Design 144: Sub-opt 8]	41.7
AAGCUGGUAGGAUAUACUAGGGCAACUAAUGAGCCGAUAGGACAUGAGGAUCACCCAUGUAGAAGGGCCAGAAA [Mat - Exclusion 2 - JL mod - D64]	74.4
AAAAAACAUGAGGAUCACCCAUGUGAGGAUAUUGGUAUUCAAGAUAUAAUCUUAAUAGCGAGAAGGCGCAAAAA [Brourd 613 Mod 17 - Jieux - Exclusion 1]	24.1
AAAGCACGAGGAUAUACAUGAGGAUCACCCAUGUAUAAAAAAAAAAAAAAAUCCUCAUGUAGAAGGCGUGCAAA	17.4
AAAUGCUGAGGAUAUACAUGAGGAUCACCCAUGUGAAAUAAAAAAUGUGUGUAAUCGUGUAGAAGGCAGCAUAA [Exclusion 3.13 (FMN+ favored more)]	21.6
AAAUUGUCAGGAUAUCGUAUAACUCUAAAAUAGAGGAGAUACGAGAAGGGACAUGAGGAUCACCCAUGUAAAAC [May 87]	61.4
AUGUAGGUAGGAUAUACAUGGAUAUACAUUCAUGUGGACCUACAUGAGGAUCACCCAUGUAGAAGGACCUAAAA [Mat - Same state - Mayanna Mod - D128]	45
GAACGCCUAGGAUAUACAUGAGGAUCACCCAUGUCUCCCAGUCCUGGAGUGACCUCUAGUAGAAGGAGGAAUAA [Ertein]	342
AACUCGUCAGGAUAUGCGCACAGAUAAUACGCUACACAAAAGCAGAAGGGACAUGAGGAUCACCCAUGUAAAUA [JR_Exc004_Sub503]	35.1
UAUGAGCGAGGAUAUGCUUGGGACUGUCGGAAUGUGGCGGGACAUGAGGAUCACCCAUGUAGAAGGCGCGAGCG [Harteesian Stick]	77.9
AAGAAGGGAGGAUAUACAUGAGGAUCACCCAUGUAAAAGAAAGAAAAGGGAAAGAAAAGUAGAAGGCCCAAGAA [Seqenenre Tao]	36.9
AAGAACAUAGGAUAUACAAAAUAAAAGAAAAGAAAGAAAGAACAUGAGGAUCACCCAUGUAGAAGGAUGAAGAA [Khakaure Senusret III]	39
AGGAAACAUGAGGAUCACCCAUGUAAGGAUAUGUGAAAGAAAAGAAAAGAAAGAAGAAACAGAAGGUACAAGAA [Qa'a]	46.3
AAAUGCUGAGGAUAUACAUGAGGAUCACCCAUGUAAAAUAAAUAAUGGGUGUAAACGUGUAGAAGGCAGCAUAA [Exclusion 3.14d (FMN+ favored )]	33.8
AAAUAGUUAGGAUAUACAUGAGGAUCACCCAUGUGGACUUAUGGCGAGUAAUUUAGUGGUAGAAGGGACUAAAA [EX2 Malc#29]	46.2

test system: MS2 coat protein; assay: apparent KD of MS2 coat protein, switch OFF state (with FMN for OFF switches, without FMN for ON switches); designed switch direction (-1 OFF switch, 1 ON switch): -1; higher = weaker reporter binding; details: FMN input: 0 or 200 uM; Eterna round: R93 (includes R88 designs)
Procedure, shortened: as §1

Sequence	apparent KD of MS2 coat protein [nM]
AAAAGACAUGAGGAUCACCCAUGUUAGGAUAUCGUGCAGAAAAAAAAAAAAAACUGCACGAGAAGGAACAAGGA [Seclusion]	51.9
CUCAAGUCAGGAUAUAAAAGAAAAGAAGAGAAAGAAAAGAAUUAGAAGGGACAUGAGGAUCACCCAUGUAAGAA [EteRNA is fun!]	60.6
AAAAAGUGAGGAUAUACGAGGAGAAACAACAAACAAACAAAACAUGAGGAUCACCCAUGUAGAAGGCACAAAAA [Ex 2 sub 3]	28.6
AAGGGACAUGAGGAUCACCCAUGUUAGGAUAUGCAAACAACAAACAACAAACAACAAAGCAGAAGGGACAAAAA [63%, Olong, 6]	28.8
AAAAAAAGAGGAUAUACGAACAUGUCAAAAGACGUGAAGGGACAUGAGGAUCACCCAUGUAGAAGGUUUAAAAA [JL Wide Open 29]	15.5
AACAUGUCAGGAUAUGUAAAAAAAAAAAAAAAAAAAAAAAUACAGAAGGGACAUGAGGAUCACCCAUGUCAGGG [EX4 391: Minimal 3]	55.3
AGCUAGUCAGGAUAUACGAACAUGUCAAAAGACGUGAAGGGACAUGAGGAUCACCCAUGUAGAAGGGACUAGCG [salish99-ex2-14]	103
ACAUGACAUGAGGAUCACCCAUGUGAGGAUAUGCGAAAAAAAAAAAAAAAAAAAAUUGGCAGAAGGCACAAAAU [Jean Baudrillard]	153
AAGAUGUCAGGAUAUGUGUAAAGAAUAAAAGAAAUAACAACACAGAAGGGACAUGAGGAUCACCCAUGUCAACA [May 34]	19.8
AAAAAGUCAGGAUAUCGGAAAAAAAAAAUAAAAAAAAAAAACGAGAAGGGACAUGAGGAUCACCCAUGUAUGAC [Mat - Exclusion 4 - Mayanna - D112]	41.3
AAGAAUGGAGGAUAUACAAAAUAAAAGAAAAGAAAGAAAGAACAUGAGGAUCACCCAUGUAGAAGGCCGAAGAA [Mersekhemre Ined]	37.3
AAAAAACAUGAGGAUCACCCAUGUAAGGAUAUGCAAAAUAAAAGAAAUAAAAAGAAAAGCAGAAGGUAUAUGAA [JL wbt mod 7]	26.7
AGUCAUACAGGAUAUACAUGAGGAUCACCCAUGUAUAUCCAAAAAAAGUGAUCCUCAUGUAGAAGGGUAUGACA [EX3 203: Super Stable 3]	8.92
AAAUUGUCAGGAUAUCUGGAUAGGAAAAAGAAAACCUAUCCAGAGAAGGGACAUGAGGAUCACCCAUGUAAAAA [JL cataway mod 1]	107
GGAAAACAUGAGGAUCACCCAUGUAAGGAUAUGCAAAAAAAGGAUAUAGAAGGAAAAAGCAGAAGGUACAAAGG [salish99-ex1-24]	55.5
CUCUUGUCAGGAUAUCGAAGAAAAGAAAAGAAAGAAAAGAACGAGAAGGGACAUGAGGAUCACCCAUGUAAGAA [EteRNA is fun!]	67.6
AAAAAACAUGAGGAUCACCCAUGUGAGGAUAUGACGUAAAUAAAGAAAGAAUAAAUCGUCAGAAGGCACAAAAA [Mat - Exclusion 1 - Eli mod - D72]	40.3

Sequence	apparent KD of MS2 coat protein [nM]
AAGAAGAGAGGAUAUACAUGAAAGAAAGAAAAGAAAAGAAAACAUGAGGAUCACCCAUGUAGAAGGCUCAAGAA [EteRNA is fun!]	40.6
AACUGACAUGAGGAUCACCCAUGUCAGGAUAUGCUUCAUAAAAACAAACAAAAAUGAUGCAGAAGGGACAUGGG [Design 31 :P Sub-opt 7]	39.5
AGUCUGAGAGGAUAUACAUGGAAAAAAAAAGUAAGAUCCCUACAUGAGGAUCACCCAUGUAGAAGGCUCUGACA [Ex2 Design 144: Sub-opt 8]	22.7
AAGCUGGUAGGAUAUACUAGGGCAACUAAUGAGCCGAUAGGACAUGAGGAUCACCCAUGUAGAAGGGCCAGAAA [Mat - Exclusion 2 - JL mod - D64]	125
AAAAAACAUGAGGAUCACCCAUGUGAGGAUAUUGGUAUUCAAGAUAUAAUCUUAAUAGCGAGAAGGCGCAAAAA [Brourd 613 Mod 17 - Jieux - Exclusion 1]	21.9
AAAGCACGAGGAUAUACAUGAGGAUCACCCAUGUAUAAAAAAAAAAAAAAAUCCUCAUGUAGAAGGCGUGCAAA	9.78
AAAUGCUGAGGAUAUACAUGAGGAUCACCCAUGUGAAAUAAAAAAUGUGUGUAAUCGUGUAGAAGGCAGCAUAA [Exclusion 3.13 (FMN+ favored more)]	18.1
AAAUUGUCAGGAUAUCGUAUAACUCUAAAAUAGAGGAGAUACGAGAAGGGACAUGAGGAUCACCCAUGUAAAAC [May 87]	57.2
AUGUAGGUAGGAUAUACAUGGAUAUACAUUCAUGUGGACCUACAUGAGGAUCACCCAUGUAGAAGGACCUAAAA [Mat - Same state - Mayanna Mod - D128]	39.4
GAACGCCUAGGAUAUACAUGAGGAUCACCCAUGUCUCCCAGUCCUGGAGUGACCUCUAGUAGAAGGAGGAAUAA [Ertein]	115
AACUCGUCAGGAUAUGCGCACAGAUAAUACGCUACACAAAAGCAGAAGGGACAUGAGGAUCACCCAUGUAAAUA [JR_Exc004_Sub503]	22.1
UAUGAGCGAGGAUAUGCUUGGGACUGUCGGAAUGUGGCGGGACAUGAGGAUCACCCAUGUAGAAGGCGCGAGCG [Harteesian Stick]	126
AAGAAGGGAGGAUAUACAUGAGGAUCACCCAUGUAAAAGAAAGAAAAGGGAAAGAAAAGUAGAAGGCCCAAGAA [Seqenenre Tao]	40.2
AAGAACAUAGGAUAUACAAAAUAAAAGAAAAGAAAGAAAGAACAUGAGGAUCACCCAUGUAGAAGGAUGAAGAA [Khakaure Senusret III]	24.4
AGGAAACAUGAGGAUCACCCAUGUAAGGAUAUGUGAAAGAAAAGAAAAGAAAGAAGAAACAGAAGGUACAAGAA [Qa'a]	42.4
AAAUGCUGAGGAUAUACAUGAGGAUCACCCAUGUAAAAUAAAUAAUGGGUGUAAACGUGUAGAAGGCAGCAUAA [Exclusion 3.14d (FMN+ favored )]	16.8
AAAUAGUUAGGAUAUACAUGAGGAUCACCCAUGUGGACUUAUGGCGAGUAAUUUAGUGGUAGAAGGGACUAAAA [EX2 Malc#29]	47
